Results on ten molecules are retold here after patent US20080057063A1 (published 2008).

For assay [1], the target named is T1, human αVβ6 integrin on cells (human, UniProt P06756 31-1048; P18564 22-788). In words: cell-based or functional assay.
Assay [2] concerns the target T1, human αVβ6 integrin on cells. In words: cell-based or functional assay. This is another data set of the same source.
The target in assay [3] is T2, human αV on parental A375M cells, which express αVβ3 and αVβ5, but not αVβ6 (human, UniProt P06756 31-1048). In words: cell-based or functional assay.
Assay [4] deals with T3, α4β1 integrin (on J6.77 cells) (UniProt P13612 34-1032; P05556 21-798, limits assumed). In words: cell-based or functional assay.
In assay [5] the target is T4, α5β1 integrin (on K562 cells) (UniProt P08648 42-1049; P05556 21-798, limits assumed). In words: cell-based or functional assay.
Assay [6] addresses T2, human αV on parental A375M cells, which …. In words: FACS, parental A375M cells (αVβ3, αVβ5).
Protocol: For this assay, cross-reactivity was tested on the supernatants using FACS analysis on parental A375M cells, which express αVβ3 and αVβ5, but not αVβ6.
The assays were performed as follows. […] The cells were then pelleted, the supernatant discarded, and resuspended in FACS buffer and incubated for 30 minutes at 37° C. Cells were then washed twice with FACS buffer and resuspended in a final volume of 100 μL FACS buffer per well.
Approximately 100,000 cells total, comprising a 50:50 mix of CFSE-labeled A375M cells and transfected 293 cells, were used in each reaction as follows. 100 μL of CFSE-labeled A375M cells and 100 μL of 293 cells were dispensed into a V-bottom plate. The cells in the plate were pelleted at 1500 rpm for 3 minutes, and then resuspended in 100 μL FACS buffer. The pelleting step was repeated, and the FACS buffer supernatant was removed. The harvested antibody-containing supernatants, or control primary antibodies were added in a volume of 50 μL and the cells were resuspended. […] The plate was incubated on ice for 45 minutes, after which 100 μL FACS buffer was added to dilute the primary antibody. The cells were then pelleted by centrifuging at 1500 rpm for 3 minutes, and the pellet was resuspended in 100 μL FACS buffer. The pelleting step was repeated, and the FACS buffer supernatant was removed. Cells were then resuspended in the appropriate secondary antibody (5 μg/ml) with 7AAD dye (10 μg/ml), and stained on ice for 7 minutes. Then 150 μL of FACS buffer was added and the cells were pelLeted at 1500 rpm for 3 minutes, after which the cells were washed in 100 μL FACS buffer, pelleted, and then resuspended in 250 μL buffer and added to FACS tubes.
In the next assay the target is T5, cynomolgus αVβ6 on cells (cynomolgus, UniProt A0A2K5WCD3 31-1048; A0A2K5TZ36 22-787).
T5 construct: whole, on cells; also called macaque αVβ6; Mac AVB6
In words: FACS, HEK-293 transfected with cynomolgus αV and β6. (In general: A flow cytometer gives signals particle by particle.)

The target in assay [7] is T1, human αVβ6 integrin on cells. In words: FMAT, HEK 293 cells overexpressing αVβ6, supernatant.
For the next assay, the target named is T6, soluble αVβ6 (human, UniProt P06756 31-992; P18564 22-709).
T6 construct: extracellular domain; also called soluble αVβ6 protein; soluble antigen
In words: Biacore, mAb captured on anti-human IgG, soluble αVβ6 injected, 1:1 fit. Background: Surface plasmon resonance follows binding to a sensor surface in real time, without labels.

Assay [8] concerns the target T3, α4β1 integrin (on J6.77 cells). In words: cell-based or functional assay. The source holds these as a separate data set.
Assay [9] has as its target T4, α5β1 integrin (on K562 cells). In words: cell-based or functional assay. The source holds these as a separate data set.

Numbering of substitutions follows the chain as printed. Where two headings read alike, the source gives them in different places.

T4 sequence (P08648 42-1049 limits assumed, chain 1 of 2): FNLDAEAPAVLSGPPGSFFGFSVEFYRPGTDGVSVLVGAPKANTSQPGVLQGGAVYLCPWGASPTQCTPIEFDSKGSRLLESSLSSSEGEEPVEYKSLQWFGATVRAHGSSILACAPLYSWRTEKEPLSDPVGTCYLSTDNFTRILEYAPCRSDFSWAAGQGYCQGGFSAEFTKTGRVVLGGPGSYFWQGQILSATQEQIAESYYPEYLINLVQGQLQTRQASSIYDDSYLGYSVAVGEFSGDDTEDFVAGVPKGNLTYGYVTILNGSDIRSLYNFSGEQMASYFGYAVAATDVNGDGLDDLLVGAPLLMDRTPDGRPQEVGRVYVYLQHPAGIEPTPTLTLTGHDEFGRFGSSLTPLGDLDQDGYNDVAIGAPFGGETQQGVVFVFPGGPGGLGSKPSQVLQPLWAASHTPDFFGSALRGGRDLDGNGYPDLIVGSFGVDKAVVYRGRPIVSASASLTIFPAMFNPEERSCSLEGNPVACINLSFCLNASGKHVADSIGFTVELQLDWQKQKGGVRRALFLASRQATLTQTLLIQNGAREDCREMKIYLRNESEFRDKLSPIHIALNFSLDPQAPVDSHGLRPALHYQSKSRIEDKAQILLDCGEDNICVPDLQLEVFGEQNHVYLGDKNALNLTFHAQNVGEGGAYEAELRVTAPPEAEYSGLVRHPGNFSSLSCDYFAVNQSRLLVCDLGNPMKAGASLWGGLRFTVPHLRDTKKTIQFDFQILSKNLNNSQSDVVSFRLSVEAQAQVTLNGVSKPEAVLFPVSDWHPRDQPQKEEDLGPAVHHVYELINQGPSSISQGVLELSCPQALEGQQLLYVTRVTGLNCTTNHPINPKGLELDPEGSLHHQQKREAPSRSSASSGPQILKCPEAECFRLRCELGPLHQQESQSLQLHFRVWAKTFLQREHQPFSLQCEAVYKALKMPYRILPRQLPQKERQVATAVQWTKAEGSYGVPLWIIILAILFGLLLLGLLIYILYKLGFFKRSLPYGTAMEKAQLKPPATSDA
T4 sequence (P05556 21-798 limits assumed, chain 2 of 2): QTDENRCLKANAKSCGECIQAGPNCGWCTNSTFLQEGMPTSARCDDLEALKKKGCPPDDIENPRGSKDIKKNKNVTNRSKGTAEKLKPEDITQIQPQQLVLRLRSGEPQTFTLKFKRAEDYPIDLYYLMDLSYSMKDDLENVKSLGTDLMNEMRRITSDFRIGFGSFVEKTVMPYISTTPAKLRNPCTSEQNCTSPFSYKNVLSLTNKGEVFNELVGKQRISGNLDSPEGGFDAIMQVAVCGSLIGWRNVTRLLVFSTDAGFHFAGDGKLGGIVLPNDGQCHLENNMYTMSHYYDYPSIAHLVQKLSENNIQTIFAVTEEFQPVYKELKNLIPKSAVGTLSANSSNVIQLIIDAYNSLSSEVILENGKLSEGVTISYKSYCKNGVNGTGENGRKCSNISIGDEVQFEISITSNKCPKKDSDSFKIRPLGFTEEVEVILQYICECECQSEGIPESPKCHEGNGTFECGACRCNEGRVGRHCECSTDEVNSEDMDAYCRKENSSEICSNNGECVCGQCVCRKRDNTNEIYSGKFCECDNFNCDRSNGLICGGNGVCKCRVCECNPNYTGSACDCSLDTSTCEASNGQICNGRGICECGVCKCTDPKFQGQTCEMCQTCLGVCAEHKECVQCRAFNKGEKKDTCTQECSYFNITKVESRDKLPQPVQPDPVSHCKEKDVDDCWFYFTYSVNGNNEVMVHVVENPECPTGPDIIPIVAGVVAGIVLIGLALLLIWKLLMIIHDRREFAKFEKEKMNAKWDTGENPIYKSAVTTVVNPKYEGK
T6 sequence (P06756 31-992, chain 1 of 2): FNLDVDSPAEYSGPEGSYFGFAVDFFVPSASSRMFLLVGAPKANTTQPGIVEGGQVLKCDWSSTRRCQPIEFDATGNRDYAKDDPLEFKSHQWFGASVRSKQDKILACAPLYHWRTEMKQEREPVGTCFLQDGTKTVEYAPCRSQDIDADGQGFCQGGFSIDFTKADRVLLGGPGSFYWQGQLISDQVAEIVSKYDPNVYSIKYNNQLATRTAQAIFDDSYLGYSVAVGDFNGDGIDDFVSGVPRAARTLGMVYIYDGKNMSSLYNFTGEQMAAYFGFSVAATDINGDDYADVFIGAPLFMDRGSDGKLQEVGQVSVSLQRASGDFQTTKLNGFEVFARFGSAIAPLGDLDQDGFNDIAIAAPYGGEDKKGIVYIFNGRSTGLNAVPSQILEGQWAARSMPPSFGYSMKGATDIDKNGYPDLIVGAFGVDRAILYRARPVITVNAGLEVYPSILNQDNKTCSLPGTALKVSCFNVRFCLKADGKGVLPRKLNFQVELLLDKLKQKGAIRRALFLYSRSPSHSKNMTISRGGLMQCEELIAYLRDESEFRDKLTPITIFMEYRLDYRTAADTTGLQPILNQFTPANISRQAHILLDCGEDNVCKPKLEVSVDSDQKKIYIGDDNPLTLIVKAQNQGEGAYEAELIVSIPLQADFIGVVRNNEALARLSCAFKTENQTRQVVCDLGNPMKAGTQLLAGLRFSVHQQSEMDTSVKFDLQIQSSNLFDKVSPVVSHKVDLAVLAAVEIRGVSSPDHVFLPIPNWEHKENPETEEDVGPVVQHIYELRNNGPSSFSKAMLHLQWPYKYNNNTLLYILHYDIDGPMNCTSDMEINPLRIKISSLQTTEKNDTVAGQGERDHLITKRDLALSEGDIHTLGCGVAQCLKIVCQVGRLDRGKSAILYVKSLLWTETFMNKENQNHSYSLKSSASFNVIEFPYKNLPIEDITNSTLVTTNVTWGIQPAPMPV
T6 sequence (P18564 22-709, chain 2 of 2): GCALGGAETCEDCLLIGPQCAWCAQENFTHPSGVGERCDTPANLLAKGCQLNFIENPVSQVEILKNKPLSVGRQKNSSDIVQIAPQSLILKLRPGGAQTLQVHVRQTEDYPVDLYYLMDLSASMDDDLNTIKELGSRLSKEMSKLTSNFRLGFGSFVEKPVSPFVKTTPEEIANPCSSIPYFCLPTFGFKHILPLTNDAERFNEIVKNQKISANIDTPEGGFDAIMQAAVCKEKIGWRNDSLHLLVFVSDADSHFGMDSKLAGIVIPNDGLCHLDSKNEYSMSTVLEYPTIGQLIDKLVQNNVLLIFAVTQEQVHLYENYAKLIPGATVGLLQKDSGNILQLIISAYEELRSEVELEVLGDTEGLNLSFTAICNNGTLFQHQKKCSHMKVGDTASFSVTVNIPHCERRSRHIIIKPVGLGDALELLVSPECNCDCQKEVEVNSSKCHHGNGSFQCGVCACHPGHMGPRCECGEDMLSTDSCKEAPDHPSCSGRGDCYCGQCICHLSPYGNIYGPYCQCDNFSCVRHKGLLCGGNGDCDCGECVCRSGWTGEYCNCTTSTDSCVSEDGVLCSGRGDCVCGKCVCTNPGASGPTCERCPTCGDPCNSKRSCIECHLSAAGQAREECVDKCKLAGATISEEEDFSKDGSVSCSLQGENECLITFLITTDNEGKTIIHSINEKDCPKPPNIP
T2 sequence (P06756 31-1048 A375M): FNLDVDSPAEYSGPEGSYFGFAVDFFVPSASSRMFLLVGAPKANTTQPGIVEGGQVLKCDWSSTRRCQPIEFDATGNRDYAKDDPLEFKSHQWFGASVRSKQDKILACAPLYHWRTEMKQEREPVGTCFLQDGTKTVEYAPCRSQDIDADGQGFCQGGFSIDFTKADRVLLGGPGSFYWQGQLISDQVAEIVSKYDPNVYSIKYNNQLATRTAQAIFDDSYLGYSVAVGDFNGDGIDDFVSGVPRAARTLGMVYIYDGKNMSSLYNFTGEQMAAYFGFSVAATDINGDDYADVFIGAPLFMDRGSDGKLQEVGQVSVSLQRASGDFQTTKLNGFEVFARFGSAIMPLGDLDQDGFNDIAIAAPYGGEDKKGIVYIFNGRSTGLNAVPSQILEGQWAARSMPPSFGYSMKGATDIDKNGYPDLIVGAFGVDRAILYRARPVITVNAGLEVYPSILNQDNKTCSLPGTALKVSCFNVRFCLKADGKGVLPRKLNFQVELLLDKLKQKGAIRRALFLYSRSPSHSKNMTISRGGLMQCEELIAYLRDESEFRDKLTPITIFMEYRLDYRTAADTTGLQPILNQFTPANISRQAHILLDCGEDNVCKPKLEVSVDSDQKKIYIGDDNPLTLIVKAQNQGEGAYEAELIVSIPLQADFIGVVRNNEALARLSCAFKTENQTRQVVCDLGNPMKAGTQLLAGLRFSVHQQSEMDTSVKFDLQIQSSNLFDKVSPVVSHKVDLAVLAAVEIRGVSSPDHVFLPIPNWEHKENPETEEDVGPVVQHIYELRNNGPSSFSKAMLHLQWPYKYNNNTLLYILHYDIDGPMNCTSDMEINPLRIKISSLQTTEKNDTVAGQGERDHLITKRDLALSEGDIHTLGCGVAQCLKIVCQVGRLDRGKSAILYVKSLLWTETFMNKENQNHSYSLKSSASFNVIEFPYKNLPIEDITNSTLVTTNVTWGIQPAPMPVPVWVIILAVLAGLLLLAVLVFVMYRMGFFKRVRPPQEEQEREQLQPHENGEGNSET
Protocol for cynomolgus αVβ6 on cells: Cross-reactivity of the antibody-containing supernatants to macaque αVβ6 was tested on the supernatants using FACS analysis on HEK-293 cells transiently transfected with cynomolgus αV and cynomolgus β6.
HEK-293 cells were transiently transfected with cynomolgus αV and cynomolgus β6. After 48 hours, the cells were collected and resuspended in FACS buffer to reach a final concentration of approximately 50,000 cells in 100 μL.
Approximately 100,000 cells total, comprising a 50:50 mix of CFSE-labeled A375M cells and transfected 293 cells, were used in each reaction as follows. 100 μL of CFSE-labeled A375M cells and 100 μL of 293 cells were dispensed into a V-bottom plate. The cells in the plate were pelleted at 1500 rpm for 3 minutes, and then resuspended in 100 μL FACS buffer. The pelleting step was repeated, and the FACS buffer supernatant was removed. The harvested antibody-containing supernatants, or control primary antibodies were added in a volume of 50 μL and the cells were resuspended. […] The plate was incubated on ice for 45 minutes, after which 100 μL FACS buffer was added to dilute the primary antibody. The cells were then pelleted by centrifuging at 1500 rpm for 3 minutes, and the pellet was resuspended in 100 μL FACS buffer. The pelleting step was repeated, and the FACS buffer supernatant was removed. Cells were then resuspended in the appropriate secondary antibody (5 μg/ml) with 7AAD dye (10 μg/ml), and stained on ice for 7 minutes. Then 150 μL of FACS buffer was added and the cells were pelLeted at 1500 rpm for 3 minutes, after which the cells were washed in 100 μL FACS buffer, pelleted, and then resuspended in 250 μL buffer and added to FACS tubes. Samples were analyzed on a high throughput FACS machine and analyzed using Cell Quest Pro software.
Protocol for soluble αVβ6: The Biacore analysis was performed as follows. A high-density goat α human IgG antibody surface over two CM5 Biacore chips was prepared using routine amine coupling. Each mAb was diluted in degassed HBS-P running buffer containing 100 μg/ml BSA, 1 mM MgCl₂, and 1 mM CaCl₂ to a concentration of approximately 1 μg/mL. […] A 4-minute wash step at 50 μL/min followed to stabilize the mAb baseline.
A 10-minute dissociation followed each antigen injection. The antigen samples were prepared in the HBS-P running described above. All samples were randomly injected in triplicate with several mAb capture/buffer inject cycles interspersed for double referencing. […] A flow rate of 50 μL/min was used for all antigen injection cycles.
The data were then fit to a 1:1 interaction model with the inclusion of a term for mass transport using CLAMP.

B1: sc 298 (antibody, V domains shown)
VH: QVQLVESGGGVVQPGRSLRLSCAASGFTFSSYGMHWVRQAPGKGLEWVAVIWYGGSNKYYADSVKGRFTISRDNSKNTLYLQMNSLRAEDTAVYYCARDLAARRGDYYYYGMDVWGQGTTVTVSS
VL: SSELTQDPVVSVALGQTVRITCQGDSLRSYYLSWYQQKPGQAPVLVIYGKNNRPSGIPDRFSGSNSGNTASLTITGAQAEDEADYYCNSRDSSGNHLFGGGTKLTVL
As usually defined, the Kd is the equilibrium constant for the complex coming apart. A word on the koff: it is the rate constant with which the complex falls apart. Low readings indicate slow dissociation, high ones fast dissociation. Broadly, the kon is a measure of how fast the partners come together. Lower therefore signals slower complex formation. Regarding B1, in assay [1], the “Assay 1 % Inhibition (HT29 adhesion to TGFβLAP)” value (shortened to “Assay 1 % Inhibition”) is 98%, the “Assay 2 % Inhibition (HT29 adhesion to TGFβLAP)” value (“Assay 2 % Inhibition” below) is 102% and the “Average % Inhibition (HT29 adhesion to TGFβLAP)” value (from here on “Average % Inhibition”) was 100%. For the same molecule, in [2], the “Estimated IC50, n = 1 (HT29 adhesion to TGFβLAP)” value is 0.029 µg/mL; the “Estimated IC50, n = 2 (HT29 adhesion to TGFβLAP)” value was 0.025 µg/mL; the “Estimated IC50, n = 3 (HT29 adhesion to TGFβLAP)” value was 0.033 µg/mL. Moreover, the “Percent Inhibition (A375M adhesion to osteopontin peptide, 5 µg/ml)” value in assay [3] came to 9%. Moreover, the “Percent Inhibition (J6.77 adhesion to CS-1 peptide of fibronectin, 5 ug/ml)” value in assay [4] is -7%. Moreover, the “Percent Inhibition (K562 adhesion to FN9-10 peptide of fibronectin, 5 µg/ml)” value in assay [5] is 2%. In addition, in [6], the “% Cells Shifted” value worked out at 45% and the GeoMean turned out to be 2.14. Besides, in the assay with cynomolgus αVβ6 on cells, the “% Cells Shifted” value came to 53% and the GeoMean was 63.1. For the same molecule, in assay [7], the “FMAT Count” value is 102, the “FMAT FL1” value was 2140 and the “FMAT FL1 × Count” value is 218000. Moreover, in the assay with soluble αVβ6, the Kd amounted to 21 nM, the koff came out at 0.00118 s⁻¹ and the kon was found to be 56500 M⁻¹ s⁻¹.

B2: sc 374 (antibody, V domains shown)
VH: B1 VH with G54D, D99T, L100E, A101G, A102I, R103A, R104A, G105R, D106L
VL: not shown
Turning to B2, the results for the GeoMean (in assay [6]; with cynomolgus αVβ6 on cells) were 2.14 and 61.8, respectively.

B3: sc 49 (antibody, V domains shown)
VH: QVQLQESGPGLVKPSQTLSLTCTVAGGSIRSGDYYWSWIRQHPGKGLEWIGNIYYSGSTYYNPSLKSRITISVATSRNQFSLKLTSVTAADTAVYYCARGGAITIFGVFDYWGQGTLVTVSS
VL: not shown
notes: also called sc 049
In the case of B3, in assay [6], the “% Cells Shifted” value came out at 20% and the GeoMean came to 1.74.

B4: sc 320 (antibody, V domains shown)
VH: EVQLVESGGGLVKPGGSLRLSCAASGYTFTNYIMHWVRQAPGKGLEWVSSISISSSYIYYADSVKGRFTISRDNAKNSLYLQMNSLRAEDTAVYYCARDPVPLERRDYYYGMDVWGQGTTVTVSS
VL: QSVLTQPPSMSAAPGQKVTISCSGSSSNIGNNYVSWYQQLPGTAPKLLIYDNNKRPSGIPDRFSGSKSGTSATLGITGLQTGDEADYYCGTWDSSLSAGVFGGGTKLTVL
As to B4, in [4], the “Percent Inhibition (J6.77 adhesion to CS-1 peptide of fibronectin, 5 ug/ml)” value is -8%. In addition, in assay [6], the “% Cells Shifted” value came to 15% and the GeoMean was 23.2.

B5: sc 254 (antibody, V domains shown)
VH: QVQLQESGPGLVKPSQTLSLTCTVSGGSISSGGYYWSWIRQHPGKGLEWIGYIYYSGSTYYNPSLKSRVTISVDTSKNQFSLKLSSVTAADTAMYYCARYRGPAAGRGDFYYFGMDVWGQGTTVTVSS
VL: DIVMTQTPLSLSVTPGQPASIFCKSSQSLLNSDGKTYLCWYLQKPGQPPQLLIYEVSNRFSGVPDRFSGSGSGTDFTLKISRVEAEDVGVYYCMQGIQLPWAFFGQGTKVEIK
As for B5, in assay [1], the “Assay 1 % Inhibition” value stood at 98%, the “Assay 2 % Inhibition” value came out at 106% and the “Average % Inhibition” value worked out at 102%. In addition, in [2], the “Estimated IC50, n = 1 (HT29 adhesion to TGFβLAP)” value is 0.063 µg/mL; the “Estimated IC50, n = 2 (HT29 adhesion to TGFβLAP)” value is 0.037 µg/mL; the “Estimated IC50, n = 3 (HT29 adhesion to TGFβLAP)” value is 0.037 µg/mL. Moreover, the “Percent Inhibition (J6.77 adhesion to CS-1 peptide of fibronectin, 5 ug/ml)” value in [4] stood at 0%. The “Percent Inhibition (K562 adhesion to FN9-10 peptide of fibronectin, 5 µg/ml)” value in assay [5] was -9%. In addition, in the assay with cynomolgus αVβ6 on cells, the GeoMean was determined as 78.5. In assay [7], the “FMAT Count” value came to 174, the “FMAT FL1” value turned out to be 9180 and the “FMAT FL1 × Count” value came out at 1.6e+06. In the assay with soluble αVβ6, this molecule displayed a Kd of 34.9 nM.

B6: sc 161 (antibody, V domains shown)
VH: EVQLVQSGAEVKKPGESLKISCKGSGYSFTSYWIGWVRQMPGKGLEWMGIIYPGDSDTRYSPSFQGQVTISADKSISTAYLQWSSLKASDTAMYYCARHGIAAAGFYYYYMDVWGQGTTVTVSS
VL: EIVLTQSPDTLSLSPGERASLSCRASQNVNRNYLVWYQQKPGQAPRLLIYGTSNRATGIPDRFSGSGSGTDFTLTISRLEPEDFAVYYCQQCGSLPFTFGPGTKVDIKR
On to B6, for which, in assay [1], the “Assay 1 % Inhibition” value amounted to 98%, the “Assay 2 % Inhibition” value was 106% and the “Average % Inhibition” value stood at 102%. Besides, in assay [2], the “Estimated IC50, n = 1 (HT29 adhesion to TGFβLAP)” value was 2.41 µg/mL and the “Estimated IC50, n = 2 (HT29 adhesion to TGFβLAP)” value was 0.137 µg/mL. For the same molecule, in [4], the “Percent Inhibition (J6.77 adhesion to CS-1 peptide of fibronectin, 5 ug/ml)” value was determined as 12%. In addition, in assay [6], the “% Cells Shifted” value is 11% and the GeoMean stood at 16.7. Further, in the assay with cynomolgus αVβ6 on cells, the “% Cells Shifted” value amounted to 14% and the GeoMean is 33. In addition, in assay [7], the “FMAT Count” value amounted to 23, the “FMAT FL1” value turned out to be 725 and the “FMAT FL1 × Count” value stood at 16700.

B7: sc 264 (antibody, V domains shown)
VH: QVQLQESGPGLVKPSQTLSLTCTVSGGSISSGGYYWSWIRQHPGKGLEWIGYIYYSGRTYNNPSLKSRVTISVDTSKNQFSLKLSSVTAADTAVYYCARVATGRGDYHFYAMDVWGQGTTVTVSS
VL: SYELTQPSSVSVSPGQTARITCSGDVLAKKSARWFHQKPGQAPVLVIYKDSERPSGIPERFSGSSSGTTVTLTISGAQVEDEAAYYCYSAADNNLVFGGGTKLTVL
notes: RGD in heavy chain CDR3
As for B7, the “Percent Inhibition (A375M adhesion to osteopontin peptide, 5 µg/ml)” value in assay [3] is 3%. The “Percent Inhibition (J6.77 adhesion to CS-1 peptide of fibronectin, 5 ug/ml)” value in assay [4] is -8%. Further, the “Percent Inhibition (K562 adhesion to FN9-10 peptide of fibronectin, 5 µg/ml)” value in [5] is -4%. For the same molecule, the “Percent Inhibition (J6.77 adhesion to CS-1 peptide of fibronectin, 5 ug/ml)” value in assay [8] is -30%. In assay [9], the “% Inhibition (K562 adhesion to fibronectin)” value worked out at 3%. Moreover, in assay [6], the “% Cells Shifted” value turned out to be 46% and the GeoMean came out at 2.35.

B8: sc 97 (antibody, V domains shown)
VH: EVQLVQSGAEVKKPGESLKISCKGSGYSFTSYWIGWVRQMPGKGLEWMGIIYPGDSDTRYSPSFQGQVILSADKSISTAYLQWSSLKASDTAMYYCARHDESSGYYYVFDIWGQGTMVTVSS
VL: SYELTQPPSVSVSPGQTARITCSGDALPKKYAYWYQQKSGQAPVLVIYEDIKRPSGIPERFSGSSSGTMATLTISGAQVEDEADYYCYSTDSSGNHWVFFGGGTKLTVL
notes: also called sc 097
On to B8, for which the “Percent Inhibition (J6.77 adhesion to CS-1 peptide of fibronectin, 5 ug/ml)” value in assay [4] was -7%. In assay [6], the “% Cells Shifted” value was found to be 24% and the GeoMean is 1.84.

B9: sc 277 (antibody, V domains shown)
VH: EVQLVQSGAEVKKPGESLKISCKGSGYSFPSYWIGWVRQMPGKGLEWMGIIYPGDSDTRYSPSFQGQVTISADKSISTAYLQWSSLKASDTAMYYCARHPMEDGMDVWGQGTTVTVSS
VL: SYELTQPPSVSVSPGQTARITCSGDALPKKYAFWYQQKSGQAPVLVIYDDNKRPSGIPERFSGSSSGTMATLTITGAQVEDEADYYCYSTDSSGHHVFGGGTKLTVL
Regarding B9, in assay [1], the “Assay 1 % Inhibition” value was 98%, the “Assay 2 % Inhibition” value was found to be 101% and the “Average % Inhibition” value amounted to 100%. In assay [2], the “Estimated IC50, n = 1 (HT29 adhesion to TGFβLAP)” value was 1.46 µg/mL; the “Estimated IC50, n = 2 (HT29 adhesion to TGFβLAP)” value was 0.54 µg/mL; the “Estimated IC50, n = 3 (HT29 adhesion to TGFβLAP)” value is 0.72 µg/mL. Further, in assay [4], the “Percent Inhibition (J6.77 adhesion to CS-1 peptide of fibronectin, 5 ug/ml)” value is -17%. In addition, in [6], the “% Cells Shifted” value worked out at 23% and the GeoMean stood at 1.86. Besides, in the assay with cynomolgus αVβ6 on cells, the “% Cells Shifted” value worked out at 35% and the GeoMean came to 33.4. Moreover, in assay [7], the “FMAT Count” value was 28, the “FMAT FL1” value stood at 382 and the “FMAT FL1 × Count” value came to 10700.

B10: sc 58 (antibody, V domains shown)
VH: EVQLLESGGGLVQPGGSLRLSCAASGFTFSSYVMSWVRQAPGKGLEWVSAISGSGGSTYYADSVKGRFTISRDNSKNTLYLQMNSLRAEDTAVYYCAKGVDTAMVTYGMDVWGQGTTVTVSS
VL: SYELTQPPSVSVSPGQTARITCSGDALPKKYAYWYQQKSGQAPVLVIYDDSKRPSGIPERFSGSSSGTMATLTISGAQVEDEADYYCYSTDSSGNHRVFGGGTKLTVL
notes: also called sc 058
On to B10, for which, in [1], the “Assay 1 % Inhibition” value came to 77%, the “Assay 2 % Inhibition” value came to 46% and the “Average % Inhibition” value amounted to 62%. Further, in assay [2], the “Estimated IC50, n = 1 (HT29 adhesion to TGFβLAP)” value was 4.07 µg/mL; the “Estimated IC50, n = 2 (HT29 adhesion to TGFβLAP)” value was 2.03 µg/mL; the “Estimated IC50, n = 3 (HT29 adhesion to TGFβLAP)” value is 3.26 µg/mL. In addition, the “Percent Inhibition (J6.77 adhesion to CS-1 peptide of fibronectin, 5 ug/ml)” value in assay [4] was -14%. Further, in assay [6], the “% Cells Shifted” value came out at 18% and the GeoMean was 1.78.
